From patent US20210122826A1 (MIT, published 2021)

Biological target: T1, human CD161 (human, UniProt Q12918 1-225)
T1 construct: UniProt Q12918; also called hCD161; KLRB1
Assay: blocking assay by flow cytometry: 500 nM biCLEC2D on Jurkat hCD161+ cells with 1, 10 or 100 nM antibody, SA-AF647; blocked ligand biCLEC2D; control 500 nM biCLEC2D on Jurkat WT

binding result: binds
B1: KM12.3.2 (antibody, V domains shown)
VH: EVQLVESGGGLVQPGGSLRLSCAASGFTFSSYAMSWIRQAPGKGLEWVSAISGSGGSIYYADSVKGRFTISRDNSKNTLYLQMDSLRAEDTAVYYCARGYSDSYFYGPYYTFDYWGQGTLVTVSS
VL: not shown
